Measurements reported in US20220153821A1.

The binders below were run against pHrodo-labeled 4R0N human tau P301L soluble oligomer (human), P10636 (assay: cell-based or functional assay).
pHrodo-labeled 4R0N human tau P301L soluble oligomer (human), P10636, sequence (P10636 other isoform, or with tags, fused parts or gaps P301L P301L): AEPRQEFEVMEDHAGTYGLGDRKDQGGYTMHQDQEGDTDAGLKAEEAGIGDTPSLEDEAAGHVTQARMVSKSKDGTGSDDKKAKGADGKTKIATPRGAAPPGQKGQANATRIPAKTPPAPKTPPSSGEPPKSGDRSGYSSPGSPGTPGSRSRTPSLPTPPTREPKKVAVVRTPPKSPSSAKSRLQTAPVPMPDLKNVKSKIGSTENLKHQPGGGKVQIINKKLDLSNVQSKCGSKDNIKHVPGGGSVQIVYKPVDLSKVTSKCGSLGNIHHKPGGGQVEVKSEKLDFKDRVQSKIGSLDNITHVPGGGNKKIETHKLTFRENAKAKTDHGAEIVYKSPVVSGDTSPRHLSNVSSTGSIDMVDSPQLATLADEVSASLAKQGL

Binder	Inhibition of cell based internalization (at 133 nM antibody concentration, % of inhibition of maximal fluorescent signal) [%]
Hu3D6VHvb4 / Hu3D6VLvb2 (antibody, V domains shown, here or on the partner: pHrodo-labeled) VH: EVQLVQSGAEVVKPGATVKISCKASGFTIKDYYLHWVRQRPGKGLEWIGWIDPENGDTIYDPKFQGRVTITADTSTDTAYMELSSLRSEDTAVYYCSTLDFWGQGTLVTVSS VL: not shown	61
Hu3D6VHvb2 / Hu3D6VLvb2 (antibody, V domains shown, here or on the partner: pHrodo-labeled) VH: EVQLVQSGAEVVKPGASVKISCKASGFNIKDYYLHWVRQRPGKGLEWIGWIDPENGDTVYDPKFQGRATITADTSTDTAYLELSSLTSEDTAVYFCSTLDFWGQGTLVTVSS VL: not shown	84.9
Hu3D6VHvb3 / Hu3D6VLvb2 (antibody, V domains shown, here or on the partner: pHrodo-labeled) VH: EVQLVQSGAEVVKPGATVKISCKASGFNIKDYYLHWVRQRPGKGLEWIGWIDPENGDTIYDPKFQGRATITADTSTDTAYMELSSLRSEDTAVYYCSTLDFWGQGTLVTVSS VL: not shown	71.2
Hu3D6VHvb2 / Hu3D6VLvb3 (antibody, V domains shown, here or on the partner: pHrodo-labeled) VH: EVQLVQSGAEVVKPGASVKISCKASGFNIKDYYLHWVRQRPGKGLEWIGWIDPENGDTVYDPKFQGRATITADTSTDTAYLELSSLTSEDTAVYFCSTLDFWGQGTLVTVSS VL: DVVMTQSPLSLSVTLGEPASISCRSSQSLLDSDGKTYLNWLQQRPGQSPRRLIYLVSKLDSGVPDRFSGSGSGTDFTLKISRVEAEDVGVYYCWQGTHFPYTFGQGTKLEIKR	85
Hu3D6VHvb4 / Hu3D6VLvb3 (antibody, V domains shown, here or on the partner: pHrodo-labeled) VH: EVQLVQSGAEVVKPGATVKISCKASGFTIKDYYLHWVRQRPGKGLEWIGWIDPENGDTIYDPKFQGRVTITADTSTDTAYMELSSLRSEDTAVYYCSTLDFWGQGTLVTVSS VL: DVVMTQSPLSLSVTLGEPASISCRSSQSLLDSDGKTYLNWLQQRPGQSPRRLIYLVSKLDSGVPDRFSGSGSGTDFTLKISRVEAEDVGVYYCWQGTHFPYTFGQGTKLEIKR	49
Hu3D6VHvb3 / Hu3D6VLvb3 (antibody, V domains shown, here or on the partner: pHrodo-labeled) VH: EVQLVQSGAEVVKPGATVKISCKASGFNIKDYYLHWVRQRPGKGLEWIGWIDPENGDTIYDPKFQGRATITADTSTDTAYMELSSLRSEDTAVYYCSTLDFWGQGTLVTVSS VL: DVVMTQSPLSLSVTLGEPASISCRSSQSLLDSDGKTYLNWLQQRPGQSPRRLIYLVSKLDSGVPDRFSGSGSGTDFTLKISRVEAEDVGVYYCWQGTHFPYTFGQGTKLEIKR	72.1
Hu3D6VHvb5 / Hu3D6VLvb2 (antibody, V domains shown, here or on the partner: pHrodo-labeled) VH: EVQLVQSGAEVVKPGATVKISCKASGFTIKDYYLHWVRQRPGKGLEWIGWIDPEDGETIYDPKFQGRVTITADTSTDTAYMELSSLRSEDTAVYYCSTLDFWGQGTLVTVSS VL: not shown	67.2
Hu3D6VHvb1 / Hu3D6VLvb1 (antibody, V domains shown, here or on the partner: pHrodo-labeled) VH: QVQLQQSGAELVKPGASVKLSCTASGFNIKDYYLHWVKQRPEQGLEWIGWIDPENGDTVYDPKFQGKATITADTSSNTAYLQLSSLTSEDTAVYFCSTLDFWGQGTTLTVSS VL: not shown	80

Further lines, results first:

Inhibition of cell based internalization (at 133 nM antibody concentration, % of inhibition of maximal fluorescent signal) [%]	Binder
76.3	Hu3D6VHvb6 / Hu3D6VLvb2 (antibody, V domains shown, here or on the partner: pHrodo-labeled) VH: EVQLVQSGAEVVKPGATVKISCKASGFTIKDYYLHWVRQRPGKGLEWIGWIDPEDGETVYDPKFQGRVTITADTSTDTAYMELSSLRSEDTAVYFCSTLDFWGQGTLVTVSS VL: not shown
66	Hu3D6VHvb7 / Hu3D6VLvb3 (antibody, V domains shown, here or on the partner: pHrodo-labeled) VH: EVQLVQSGAEVVKPGATVKISCKASGFTIKDYYLHWVRQRPGKGLEWIGWIDPEDGETVYDPKFQGRVTITADTSTDTAYMELSSLRSEDTAVYYCSTLDFWGQGTLVTVSS VL: DVVMTQSPLSLSVTLGEPASISCRSSQSLLDSDGKTYLNWLQQRPGQSPRRLIYLVSKLDSGVPDRFSGSGSGTDFTLKISRVEAEDVGVYYCWQGTHFPYTFGQGTKLEIKR
74.5	Hu3D6VHvb7 / Hu3D6VLvb2 (antibody, V domains shown, here or on the partner: pHrodo-labeled) VH: EVQLVQSGAEVVKPGATVKISCKASGFTIKDYYLHWVRQRPGKGLEWIGWIDPEDGETVYDPKFQGRVTITADTSTDTAYMELSSLRSEDTAVYYCSTLDFWGQGTLVTVSS VL: not shown
67.7	Hu3D6VHvb5 / Hu3D6VLvb3 (antibody, V domains shown, here or on the partner: pHrodo-labeled) VH: EVQLVQSGAEVVKPGATVKISCKASGFTIKDYYLHWVRQRPGKGLEWIGWIDPEDGETIYDPKFQGRVTITADTSTDTAYMELSSLRSEDTAVYYCSTLDFWGQGTLVTVSS VL: DVVMTQSPLSLSVTLGEPASISCRSSQSLLDSDGKTYLNWLQQRPGQSPRRLIYLVSKLDSGVPDRFSGSGSGTDFTLKISRVEAEDVGVYYCWQGTHFPYTFGQGTKLEIKR
70	Hu3D6VHvb6 / Hu3D6VLvb3 (antibody, V domains shown, here or on the partner: pHrodo-labeled) VH: EVQLVQSGAEVVKPGATVKISCKASGFTIKDYYLHWVRQRPGKGLEWIGWIDPEDGETVYDPKFQGRVTITADTSTDTAYMELSSLRSEDTAVYFCSTLDFWGQGTLVTVSS VL: DVVMTQSPLSLSVTLGEPASISCRSSQSLLDSDGKTYLNWLQQRPGQSPRRLIYLVSKLDSGVPDRFSGSGSGTDFTLKISRVEAEDVGVYYCWQGTHFPYTFGQGTKLEIKR

Each binder was assayed against recombinant human tau (human) (UniProt P10636) (assay: SPR, Biacore T200: antibody captured on anti-mouse CM5 chip, recombinant human tau 10-0.14 nM as analyte, global 1:1 fit).
recombinant human tau (human), sequence (P10636 other isoform, or with tags, fused parts or gaps limits assumed): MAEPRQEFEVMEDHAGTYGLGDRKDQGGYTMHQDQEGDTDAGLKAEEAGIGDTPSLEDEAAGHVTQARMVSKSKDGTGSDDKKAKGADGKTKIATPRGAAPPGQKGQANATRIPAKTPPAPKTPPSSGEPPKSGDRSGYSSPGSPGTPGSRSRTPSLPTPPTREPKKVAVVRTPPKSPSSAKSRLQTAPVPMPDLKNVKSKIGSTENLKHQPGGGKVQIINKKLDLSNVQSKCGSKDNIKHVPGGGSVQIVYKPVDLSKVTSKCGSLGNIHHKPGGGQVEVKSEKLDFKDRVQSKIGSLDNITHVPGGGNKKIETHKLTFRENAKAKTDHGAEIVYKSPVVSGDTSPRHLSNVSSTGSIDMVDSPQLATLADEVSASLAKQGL

Kd [nM]	koff [s⁻¹]	kon [M⁻¹ s⁻¹]	Binder
5.77	0.00332	576000	7G6 (antibody, from another filing, V domains shown) VH: QVQLLQPGAELVKPGASVIMSCKASGYTFTTYWITWVKQRPGQGLEWIGDIYPGSSICNYNEKFKSKATLTVDTSSSTAYMQLNSLTSEDSAVYYCAREDGYDAWFAYWGQGTLVTVSA VL: DVLMTQTPLSLPVSLGDQASISCRSSQSILHSNGNTYLEWYLQKPGQSPKLLICKVSNRFSGVPDRFSGSGSGTDFTLKISRVEAEDLGVYYCFQGSHVPFTFGSGTKLEIK
